Reference: US20180111972A1
Where a chain is given by its changes, count along the chain named. Names may count otherwise.

B1: PVAM-S (PV R32A), soluble, FLAG and hexahistidine tags (designed binder)
chain: DYKDDDDKIAEPAMIAECHPIETLVDILQEYPDEIGYIFKPSCVPLMRCGGCCNNRNVQCRPTEESNITMQIMRIKPHRGQHIGEMSFLQHNKCRCETVAAGSTSGSGKSSEGKGEVVKFMDVYQRSYCKTRTEVFEISRRLIDATNANFLVWPPCVEVQRCSGCCNHEGLECVPTQVQLRPVQVRKIEFVRKKPIFKKATVTLEDHLACECRPKKDHHHHHH
B2: PV RF (PV K87R chain 1 and PV I182F chain 2), soluble, FLAG and hexahistidine tags (designed binder)
chain: B1 chain with L28F, G36E, R79Q, A145R, H168D

What was measured:
[1] = target: human PDGFR on BJ-5ta human fibroblasts (human) (UniProt P09619); experiment: flow cytometry on cells, soluble ligand titrated
[2] = target: human PDGFR on BJ-5ta human fibroblasts (human) (UniProt P09619); experiment: flow cytometry titration of the soluble FLAG-tagged protein on BJ-5ta cells, anti-FLAG detection
[3] = target: human PDGFR on BJ-5ta human fibroblasts (human) (UniProt P09619); experiment: flow cytometry on BJ-5ta cells, soluble ligand titrated 5 h at 4 C, anti-FLAG-PE
[4] = target: human PDGFR on BJ-5ta human fibroblasts (human) (UniProt P09619); experiment: flow cytometry on cells, soluble ligand titrated 3 h at 4 C, anti-FLAG-PE
[5] = target: mouse PDGFR on NIH/3T3 mouse fibroblasts (mouse) (UniProt P05622); experiment: flow cytometry on cells, soluble ligand titrated
[6] = target: mouse PDGFR on NIH/3T3 mouse fibroblasts (mouse) (UniProt P05622); experiment: flow cytometry on cells, soluble ligand titrated 3 h at 4 C, anti-FLAG-PE

| Binder | fold decrease in Kd compared to PV6 [1] [fold] | EC50 (read off the curve) [2] [pM] | Kd [3] [pM] | Kd [4] [pM] | fold decrease in Kd compared to PV6 [5] [fold] | Kd [6] [pM] |
| --- | --- | --- | --- | --- | --- | --- |
| B1 | 41 | 6 | 5.1 | 10.9 |  |  |
| B2 | 63 |  |  | 7.1 | 22 | 15 |
